The values that follow are results of earlier work, collected in paper PMC3750086.

In one series the target is PDL1 (Homo sapiens) (UniProt Q9NZQ7).
The next series concerns the target CD28 (Homo sapiens) (UniProt P10747).

UniProt Q9NZQ7, sequence (Q9NZQ7 19-238): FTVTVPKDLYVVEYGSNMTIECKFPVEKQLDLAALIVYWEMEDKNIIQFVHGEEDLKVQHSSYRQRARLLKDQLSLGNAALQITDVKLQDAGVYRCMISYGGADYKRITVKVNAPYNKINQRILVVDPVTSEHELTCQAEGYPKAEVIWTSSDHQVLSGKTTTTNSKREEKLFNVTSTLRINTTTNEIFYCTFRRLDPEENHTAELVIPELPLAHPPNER

On to CD80 (from UniProt P33681), for which the Kd (as a rule, the constant that tells how readily two partners part at equilibrium) with PDL1 (Homo sapiens) was 1400 nM; in the series with CD28 (Homo sapiens), 4000 nM.
